From patent publication US20150232562A1 (Ablynx, published 2015)
Substitutions are numbered along the chain they refer to.

B1: 2G4 (VHH)
VHH: EVQLVESGGGLVQAGGSLRLSCAASGNIFSHNAMGWYRQAPGKQRELVTYITINGIANYVDSVKGRFTISRDNTKNTMYLQMVSLKPEDTAVYYCNVGGREYSGVYYYREYWGQGTQVTVSS
notes: C-term myc-His6 tag
B2: 2C5 (VHH)
VHH: EVQLVESGGGLVQAGGSLNLSCVASGIPFSTRTMAWYRQTPGKSRDWVATIRSGTPVYADSVKGRFTVSRDNAKNTLYLRMNSLKSEDSATYTCRAVNADIWGQGTQVTVSS
notes: C-term myc-His6 tag
B3: 2A1 (VHH)
VHH: EVQLVESGGGLVQAGGSLRLSCVASKITFRRYIMDWYRQAPGKQRELVASINSDGSTGYTDSVKGRFTISRDNTKNTLDLQMNSLKPEDTAVYYCHGRWLEIGAEYWGQGTQVTVSS
notes: C-term myc-His6 tag
B4: 2C3 (VHH)
VHH: EVQLVESGGGLVQPGGSLRLSCVASGFSLDDYGMTWVRQAPGKGLEWVSSINWSGTHTDYADSVKGRFTISRDNAKNTLFLQMNSLRSEDTAVYYCNQGWKIVPTDRTGHGTQVTVSS
notes: C-term myc-His6 tag
B5: 2A4 (VHH)
VHH: EVQLVESGGGLVQPGGSLRLSCAASGFIFDDYAMSWVRQAPGKGLEWVSAINWSGSHRNYADSVKGRFTISRDNAKKTVYLQMNSLQSEDTAVYYCGTGWQSTTKNQGYWGQGTQVTVSS
notes: C-term myc-His6 tag
B6: 2A5 (VHH)
VHH: EVQLVESGGGLVQPGGSLRLSCATSGFTFDDYAMTWVRQAPGKGLEWVSSINWSGTHTDYTDSVKGRFTISRNNANNTLYLQMNSLKSEDTAVYYCAKNWGDAGTTWFEKSGSAGQGTQVTVSS
notes: C-term myc-His6 tag
B7: 2C2 (VHH)
VHH: B4 VHH with G33A, K76R, R87T, S88P, V93I, V103L, T108R
notes: C-term myc-His6 tag
B8: 2D5 (VHH)
VHH: B4 VHH with T108G
notes: C-term myc-His6 tag
B9: 2H1 (VHH)
VHH: B4 VHH with K65R, T69V, R87S, S88P, V103I, T108R
notes: C-term myc-His6 tag
B10: 2G2 (VHH)
VHH: B4 VHH with A61T, S63P, S85N, R87T, S88P, Q98R, R107L, T108G
notes: C-term myc-His6 tag
B11: 2F1 (VHH)
VHH: B4 VHH with G44E, V48I, R87T, S88P, T105M, T108R
notes: C-term myc-His6 tag
B12: 2D1 (VHH)
VHH: B4 VHH with R87S, S88P, Q98R, V103L, D106N, T108G, G109S
notes: C-term myc-His6 tag
B13: 2F4 (VHH)
VHH: B4 VHH with T108R
notes: C-term myc-His6 tag
B14: 2B3 (VHH)
VHH: B4 VHH with Y60C, R87T, S88P, V103I, T108R
notes: C-term myc-His6 tag
B15: DUMMY-35GS-2D3 (bispecific antibody)
chain: EVQLVESGGGLVQAGGSLRLSCAASGRTFRSYPMGWFRQAPGKEREFVASITGSGGSTYYADSVKGRFTISRDNAKNTVYLQMNSLRPEDTAVYSCAAYIRPDTYLSRDYRKYDYWGQGTQVTVSSGGGGSGGGGSGGGGSGGGGSGGGGSGGGGSGGGGSEVQLVESGGSLVQPGGSLRLSCAASGFTFDDYAMSWVRQVPGKGLEWVSSINWSGTHTDYADSVKGRFTISRNNANNTLYLQMNSLKSEDTAVYYCAKNWRDAGTTWFEKSGSAGQGTQVTVSS
notes: C-term myc-His6 tag; also called dummy-2D3; Dummy-2D3
B16: DUMMY-35GS-47D5 (bispecific antibody)
chain: EVQLVESGGGLVQAGGSLRLSCAASGRTFRSYPMGWFRQAPGKEREFVASITGSGGSTYYADSVKGRFTISRDNAKNTVYLQMNSLRPEDTAVYSCAAYIRPDTYLSRDYRKYDYWGQGTQVTVSSGGGGSGGGGSGGGGSGGGGSGGGGSGGGGSGGGGSEVQLVESGGGLVQPGGSLRLSCAASGSIFGFNDMAWYRQAPGKQRELVALISRVGVTSSADSVKGRFTISRVNAKDTVYLQMNSLKPEDTAVYYCYMDQRLDGSTLAYWGQGTQVTVSS
notes: control: dummy Nanobody fused N-terminally to 47D5; C-term myc-His6 tag; also called Dummy-47D5
B17: 27D1-35GS-2D3 (bispecific antibody)
chain: EVQLVESGGGLVQPGGSLRLSCVASGFSLDDYGMTWVRQAPGKGLEWVSSINWSGTHTDYADSVKGRFTISRDNAKNTLFLQMNSLTPEDTAVYYCNQGWKILPAERRGHGTQVTVSSGGGGSGGGGSGGGGSGGGGSGGGGSGGGGSGGGGSEVQLVESGGSLVQPGGSLRLSCAASGFTFDDYAMSWVRQVPGKGLEWVSSINWSGTHTDYADSVKGRFTISRNNANNTLYLQMNSLKSEDTAVYYCAKNWRDAGTTWFEKSGSAGQGTQVTVSS
notes: biparatopic Nanobody; C-term myc-His6 tag
B18: 2D3-35GS-2D3 (VHH)
chain: EVQLVESGGSLVQPGGSLRLSCAASGFTFDDYAMSWVRQVPGKGLEWVSSINWSGTHTDYADSVKGRFTISRNNANNTLYLQMNSLKSEDTAVYYCAKNWRDAGTTWFEKSGSAGQGTQVTVSSGGGGSGGGGSGGGGSGGGGSGGGGSGGGGSGGGGSEVQLVESGGSLVQPGGSLRLSCAASGFTFDDYAMSWVRQVPGKGLEWVSSINWSGTHTDYADSVKGRFTISRNNANNTLYLQMNSLKSEDTAVYYCAKNWRDAGTTWFEKSGSAGQGTQVTVSS
notes: bivalent 2D3, 35GS linker; C-term myc-His6 tag
B19: 27C3-35GS-2D3 (bispecific antibody)
chain: EVQLVESGGGLVQPGGSLRLSCAASGFTFDDYATSWVRQAPGKGPEWVSAINSGGGSTYYADSVKGRFTISRDNAKNTLYLQMNSLKPEDTAVYYCARPRGSSLYLLEYDYWGQGTQVTVSSGGGGSGGGGSGGGGSGGGGSGGGGSGGGGSGGGGSEVQLVESGGSLVQPGGSLRLSCAASGFTFDDYAMSWVRQVPGKGLEWVSSINWSGTHTDYADSVKGRFTISRNNANNTLYLQMNSLKSEDTAVYYCAKNWRDAGTTWFEKSGSAGQGTQVTVSS
notes: as for B17
B20: 27H5-35GS-2D3 (bispecific antibody)
chain: EVQLVESGGGLVQAGGSLRLSCAASGFTFDDYGIGWFRQASGKEREGVSCITSSDGSTYYADSVKGRFTISSDNAKNTVYLQMNSLKPEDTAVYYCAALPFVCPSGSYSDYGDEYDYWGQGTQVTVSSGGGGSGGGGSGGGGSGGGGSGGGGSGGGGSGGGGSEVQLVESGGSLVQPGGSLRLSCAASGFTFDDYAMSWVRQVPGKGLEWVSSINWSGTHTDYADSVKGRFTISRNNANNTLYLQMNSLKSEDTAVYYCAKNWRDAGTTWFEKSGSAGQGTQVTVSS
notes: as for B17
B21: 27B7-35GS-2D3 (bispecific antibody)
chain: EVQLVESGGGLVQPGGSLRLSCAASGFTFSSYAMSWVRQAPGKGLEWVSAISSGGGSITTYADSVKGRFTISRDNAKNTLYLQMSSLKPEDTALYYCAKARSSSSYYDFGSWGQGTQVTVSSGGGGSGGGGSGGGGSGGGGSGGGGSGGGGSGGGGSEVQLVESGGSLVQPGGSLRLSCAASGFTFDDYAMSWVRQVPGKGLEWVSSINWSGTHTDYADSVKGRFTISRNNANNTLYLQMNSLKSEDTAVYYCAKNWRDAGTTWFEKSGSAGQGTQVTVSS
notes: biparatopic Nanobody; C-term myc-His6 tag; also called 2B7-35GS-2D3
B22: 27E7-35GS-2D3 (bispecific antibody)
chain: EVQLVESGGGLVQAGGSLRLSCAASGITFRRYDMGWYRQFPGKERELVATILSEGDTNYVDPVKGRFTISRDNAKNTVYLQMNDLKPEDTAVYYCNGVWRAIGRTYWGQGTQVTVSSGGGGSGGGGSGGGGSGGGGSGGGGSGGGGSGGGGSEVQLVESGGSLVQPGGSLRLSCAASGFTFDDYAMSWVRQVPGKGLEWVSSINWSGTHTDYADSVKGRFTISRNNANNTLYLQMNSLKSEDTAVYYCAKNWRDAGTTWFEKSGSAGQGTQVTVSS
notes: as for B17
B23: 27A3-35GS-2D3 (bispecific antibody)
chain: EVQLVESGGGLVQAGGSLSLSCVASGRFFSTRVMAWYRQTPGKQREFVASMRGSGSTNYADSVRGRFAISRDNAKNTVYLQMNTLKPEDTAVYYCRDINEDQWGQGTQVTVSSGGGGSGGGGSGGGGSGGGGSGGGGSGGGGSGGGGSEVQLVESGGSLVQPGGSLRLSCAASGFTFDDYAMSWVRQVPGKGLEWVSSINWSGTHTDYADSVKGRFTISRNNANNTLYLQMNSLKSEDTAVYYCAKNWRDAGTTWFEKSGSAGQGTQVTVSS
notes: as for B17

target: T1, recombinant human ErbB2/Fc chimera (human, UniProt P04626 23-652); assay: ELISA, coated ErbB2/Fc
T1 construct: bought from R&D Systems; also called rhErbB2-Fc; rhErb2-Fc; Fc part of the bought chimera not given; not described

Binder	binding result
B1	binds
B2	binds
B3	binds

target: T2, Epidermal Growth Factor Receptor 2 (HER2) (human, UniProt P04626 23-1255); assay: cell-based or functional assay

Binder	inhibition of SKBR3 cell proliferation ([3H]-thymidine), 50 nM Nanobody [%]
B4	~30
B5	~30
B6	~18

target: T2, Epidermal Growth Factor Receptor 2 …; assay: flow cytometry on SKBR3 cells, periplasmic extract

Binder	binding result
B1	binds
B2	binds
B3	binds

target: T2, Epidermal Growth Factor Receptor 2 …; assay: FMAT competition on SKBR3 cells, periplasmic extract

Binder	% blocking of Herceptin binding [%]
B7	> 90
B8	> 90
B9	> 90
B10	> 90
B11	> 90
B12	> 90
B13	> 90
B14	> 90

target: T1, recombinant human ErbB2/Fc chimera; assay: SPR (Biacore T100), Nanobody over immobilised rhErbB2-Fc

Binder	Kd [nM]	koff [s⁻¹]	kon [M⁻¹ s⁻¹]
B15	1.77	0.00113	1.16e+06
B16	3.21	0.000869	271000

target: T1, recombinant human ErbB2/Fc chimera; assay: SPR (Biacore 3000), purified Nanobody over immobilised rhErbB2-Fc

Binder	koff [s⁻¹]
B17	~0.0001
B15	~0.001
B18	~0.0001
B19	~0.001
B20	~0.001
B21	~0.001
B22	~0.0001
B23	~0.0001

target: T1, recombinant human ErbB2/Fc chimera; assay: SPR (Biacore 3000), periplasmic extract over immobilised rhErbB2-Fc

Binder	koff [s⁻¹]
B7	0.00412
B8	0.0012
B9	0.00109
B10	0.0013
B4	0.00111
B11	0.00177
B12	0.00127
B13	0.00107
B14	0.00125
B5	0.00205
B6	0.00142
